Results published in patent US20200239555A1 (STATEN BIOTECHNOLOGY B V, published 2020).

B1: mAb5 (antibody, IgG1, V domains shown)
VH: QLVESGGGLVQPGGSLRLSCAASGFTFGTYSMRWVRQAPGKGLEWVSSIHTEGGGTAYRDSVKGRFTISRDNAKNTLYLQMNSLRAEDTAVYYCVIAGYSDWGQGTLVTVSS
VL: DIVMTQSPLSLPVTPGESASISCKTSQGLVHSDGKTYFYWFLQKPGQSPQQLIYQVSNRASGVPDRFTGSGSGTDFTLKISRVKAEDAGVYYCAHGTYYPHTFGQGTRLEIK
notes: Produced as full length IgG1 (kappa) in ExpiCHO-S cells; also called humanized anti-ApoC3 antibody mAb5
B2: mAb20 (antibody, IgG1, V domains shown)
VH: QLVESGGGLVQPGGSLRLSCAASGFTFSTYSMRWVRQAPGKGLEWVSSIHTDAGGTAYRDSVKGRFTISRDNAKNTLYLQMNNLRPEDTAVYYCVIAGYSDWGQGTLVTVSS
VL: DIVMTQSPGSLSVTPGEPASISCKTSQGLVHSGGKTYFYWFLQKPGQSPQQLIYQVSNRASGVPDRFTGSGSGTDFTLKISGVEAEDAGVYYCAHGTYYPHTFGQGTRLEIK
notes: Produced as full length IgG1 (kappa) in ExpiCHO-S cells; also called humanized anti-ApoC3 antibody mAb20
B3: mAb16 (antibody, IgG1, V domains shown)
VH: QLVESGGGLVQPGGSLRLSCAASGFTFGTYSMRWVRQAPGKGLEWVSSIHTEAGGTAYRDSVKGRFTISRDNAKNTLYLQMNNLKAEDTAIYYCVIAGYSDWGQGTQVTVSS
VL: DIVMTQSPLSLPVTPGESASISCKTSQGLVHSGGKTYFYWFLQKPGQSPQQLIYQVSNRASGVPDRFTGSGSGTDFTLKISRVEAEDAGVYYCAHGTYYPHTFGSGTRLEIK
notes: Produced as full length IgG1 (kappa) in ExpiCHO-S cells; also called humanized anti-ApoC3 antibody mAb16
B4: mAb4 (antibody, IgG1, V domains shown)
VH: QLVESGGGLVQPGGSLRLSCAASGFTFGTYSMRWVRQAPGKGLEWVSSIHTEGGGTAYRDSVKGRFTISRDNAKNTLYLQMNSLRAEDTAIYYCVIAGYSDWGQGTLVTVSS
VL: DIVMTQSPLSLPVTPGESASISCKTSQGLVHSDGKTYFYWFLQKPGQSPQQLIYQVSNRASGVPDRFSGSGSGTDFTLKISRVKAEDAGVYYCAHGTYYPHTFGQGTRLEIK
notes: Produced as full length IgG1 (kappa) in ExpiCHO-S cells; also called humanized anti-ApoC3 antibody mAb4
B5: mAb15 (antibody, IgG1, V domains shown)
VH: QLVESGGGLVQPGGSLRLSCAASGFTFGTYSMRWVRQAPGKGLEWVSSIHTEAGGTAYRDSVKGRFTISRDNAKNTLYLQMNNLKAEDTAIYYCVIAGYSDWGQGTQVTVSS
VL: DIVMTQSPLSLPVTPGESASISCKTSQGLVHSGGKTYFYWFLQKPGQSPQQLIYQVSNRASGVPDRFTGSGSGTDFTLKISRVEAEDAGVYYCAQGTYYPHTFGSGTRLEIK
notes: Produced as full length IgG1 (kappa) in ExpiCHO-S cells; also called humanized anti-ApoC3 antibody mAb15
B6: mAb2 (antibody, IgG1, V domains shown)
VH: QLVESGGGLVQPGGSLRLSCAASGFTFGTYSMRWVRQVPGKGLEWVSSIHTEGGGTAYRDSVKGRFTISRDNAKNTLYLQMNSLRAEDTAIYYCVIAGYSDWGQGTLVTVSS
VL: DIVMTQSPLSLPVTPGESASISCKTSQGLVHSDGKTYFYWFLQKPGQSPQQLIYQVSNRASGVPDRFSGSGSGTDFTLKISRVKAEDAGVYYCAHGTYYPHTFGQGTRLEIK
notes: Produced as full length IgG1 (kappa) in ExpiCHO-S cells; also called humanized anti-ApoC3 antibody mAb2
B7: mAb18 (antibody, IgG1, V domains shown)
VH: QLVESGGGLVQPGGSLRLSCAASGFTFSTYSMRWVRQAPGKGLEWVSSIHTEAGGTAYRDSVKGRFTISRDNAKNTLYLQMNNLRAEDTAVYYCVIAGYSDWGQGTLVTVSS
VL: DIVMTQSPLSLPVTPGEPASISCKTSQGLVHSGGKTYFYWFLQKPGQSPQQLIYQVSNRASGVPDRFTGSGSGTDFTLKISRVEAEDAGVYYCAHGTYYPHTFGQGTRLEIK
notes: Produced as full length IgG1 (kappa) in ExpiCHO-S cells; also called humanized anti-ApoC3 antibody mAb18
B8: mAb1 (antibody, IgG1, V domains shown)
VH: QLVESGGGLVQPGGSLRLSCAASGFTFGTYSMRWVRQVPGKGLEWVSSIHTEGGGTAYRDSVKGRFTISRDNAKNTLYLQMNSLRAEDTAIYYCVIAGYSDWGQGTLVTVSS
VL: DIVMTQSPLSLPVTPGESASISCKTSQGLVHSDGKTYFYWFLQKPGQSPQQLIYQVSNRASGVPDRFTGSGSGTDFTLKISRVKAEDAGVYYCAHGTYYPHTFGQGTRLEIK
notes: Produced as full length IgG1 (kappa) in ExpiCHO-S cells; also called humanized anti-ApoC3 antibody mAb1

Experiments:
native human ApoC3 [1] = biological target: T1, native human ApoC3 (human, UniProt P02656 21-99); assay: SPR, ApoC3 over captured IgG1, pH 5.5
T1 construct: also called nhuApoC3; native huApoC3
Experimental: (§1) An inverted SPR assay was designed in which a test antibody was captured on an SPR chip, human ApoC3 protein was injected, and binding of ApoC3 to the antibody was measured. […] The immobilization was performed in accordance with the method provided by Biacore/GE using the NHS/EDC kit (Biacore AB, Cat.nr. BR-1000-50): after activation of the chip, a solution of 30 μg/ml of anti-human Fcγ antibody in 10 mM acetate buffer with pH of 5.0 was prepared and injected until the surface density reached approximately 10000 RU. The analytical cycle comprised the following steps:
(§2) The resulting sensorgrams were analyzed using the BIAevaluation 4.1 software using Langmuir 1:1 binding model to derive binding kinetics. Data was zero adjusted, the reference cell sensorgrams were subtracted and the no analyte blank assay was used for double referencing the sensorgrams corresponding to the analyte injections. The dissociation and association phase sensorgrams were fitted separately for the 4 different concentration curves. Sensorgrams were excluded from the fitting if maximum RU values reached were below the detection limit of the equipment (<5 RU), Biacore 3000 (Biacore AB).

native human ApoC3 [2] = biological target: T1, native human ApoC3; assay: SPR, ApoC3 over captured IgG1
Experimental: as §1, §2

[3] = biological target: T2, biotinylated native human ApoC3 (human, UniProt P02656 21-99, biotinylated (site not stated)); assay: SPR, IgG1 over biotinylated ApoC3 on SA chip, pH 7.4
T2 construct: also called biotinylated human ApoC3
Experimental: (§3) Biotinylated native human ApoC3 was captured on a streptavidin coated SPR chip (GE Healthcare, cat. nr. BR100032) at pH 7.4, in accordance with the method provided by Biacore, by injection of 20 μl 10 μg/ml biotinylated native human ApoC3 reaching the surface density of approximately 500 RU. 60 μL of test antibody in 1-50 nM range diluted in HBS-EP buffer (GE, cat # BR-1008-26; 0.010 M HEPES, 0.150M NaCl, 3 mM EDTA, 0.05% (v/v) surfactant P20, pH 7.4) was injected and passed through the flow cells at a flow rate of 30 μl/min, followed by an off-rate wash at pH7.4 for 5 min. After the dissociation, the flow cell surfaces were regenerated by injecting 10 μl of 10 mM NaOH/1 M NaCl and 10 μl of 10 mM glycine at pH1.5. The assay was repeated at pH5.5 using the same general protocol, where the running and sample dilution buffer was replaced by a HBS-EP buffer supplemented with citrate buffer to 10 mM final concentration and pH adjusted to 5.5.
(§4) The resulting sensorgrams were analyzed using the BIAevaluation 4.1 software using Langmuir 1:1 binding model to derive binding kinetics. Data was zero adjusted and the reference cell sensorgrams were subtracted. Sensorgrams were double referenced to no-analyte blank assay. Fitted parameters were considered not applicable if off-rate values were below the equipment's detection limit of kd: 1×10⁻⁶ 1/s.

[4] = biological target: T2, biotinylated native human ApoC3; assay: SPR, IgG1 over biotinylated ApoC3 on SA chip
Experimental: as §3, §4

native human ApoC3 [5] = biological target: T1, native human ApoC3; assay: SPR, ApoC3 over captured IgG1, pH 7.4
Experimental: as §1, §2

[6] = biological target: T2, biotinylated native human ApoC3; assay: SPR, IgG1 over biotinylated ApoC3 on SA chip, pH 5.5
Experimental: as §3, §4

T1 sequence (P02656 21-99): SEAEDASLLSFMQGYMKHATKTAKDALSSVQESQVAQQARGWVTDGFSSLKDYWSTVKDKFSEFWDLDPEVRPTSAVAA
T2 sequence (P02656 21-99): as above

| Ka (native human ApoC3 [1]) | koff (native human ApoC3 [1]) | kon (native human ApoC3 [1]) | KD (nM) pH5.5/pH7.4 (native human ApoC3 [2]) | Ka [3] | Kd [3] | koff [3] | kon [3] | KD pH5.5/KD pH7.4 [4] | Ka (native human ApoC3 [5]) | koff (native human ApoC3 [5]) | kon (native human ApoC3 [5]) | Ka [6] | Kd [6] | koff [6] | kon [6] | Kd (native human ApoC3 [1]) | Kd (native human ApoC3 [5]) | Binder |
| --- | --- | --- | --- | --- | --- | --- | --- | --- | --- | --- | --- | --- | --- | --- | --- | --- | --- | --- |
| 2.45e+06 M⁻¹ | 0.0376 s⁻¹ | 92000 M⁻¹ s⁻¹ | 2.25 | 6.76e+09 M⁻¹ | 0.15 nM | 3.51e-05 s⁻¹ | 237000 M⁻¹ s⁻¹ | 2.33 | 5.51e+06 M⁻¹ | 0.00637 s⁻¹ | 35100 M⁻¹ s⁻¹ | 2.9e+09 M⁻¹ | 0.35 nM | 0.000145 s⁻¹ | 419000 M⁻¹ s⁻¹ |  |  | B1 |
|  |  |  |  | 1.71e+09 M⁻¹ | 0.59 nM | 0.000487 s⁻¹ | 831000 M⁻¹ s⁻¹ | 16.1 | 747000 M⁻¹ | 0.0737 s⁻¹ | 55100 M⁻¹ s⁻¹ | 1.06e+08 M⁻¹ |  | 0.0214 s⁻¹ | 2.27e+06 M⁻¹ s⁻¹ |  |  | B2 |
|  |  |  |  | 1.46e+09 M⁻¹ | 0.69 nM | 0.000375 s⁻¹ | 546000 M⁻¹ s⁻¹ | 10.8 | 1.68e+06 M⁻¹ | 0.0466 s⁻¹ | 78100 M⁻¹ s⁻¹ | 1.34e+08 M⁻¹ |  | 0.0121 s⁻¹ | 1.63e+06 M⁻¹ s⁻¹ |  |  | B3 |
| 2.32e+06 M⁻¹ | 0.0359 s⁻¹ | 83100 M⁻¹ s⁻¹ | 3.48 | 2.15e+11 M⁻¹ |  | 1.13e-06 s⁻¹ | 243000 M⁻¹ s⁻¹ |  | 8.06e+06 M⁻¹ | 0.00565 s⁻¹ | 45500 M⁻¹ s⁻¹ | 2.67e+09 M⁻¹ | 0.37 nM | 0.000156 s⁻¹ | 416000 M⁻¹ s⁻¹ |  |  | B4 |
| 1.16e+07 M⁻¹ | 0.0116 s⁻¹ | 134000 M⁻¹ s⁻¹ | 2.48 | 1.86e+11 M⁻¹ |  | 2.77e-06 s⁻¹ | 516000 M⁻¹ s⁻¹ |  | 2.88e+07 M⁻¹ | 0.00378 s⁻¹ | 109000 M⁻¹ s⁻¹ | 2.83e+09 M⁻¹ | 0.35 nM | 0.000249 s⁻¹ | 705000 M⁻¹ s⁻¹ | 86 nM | 35 nM | B5 |
| 3.44e+06 M⁻¹ | 0.0281 s⁻¹ | 96600 M⁻¹ s⁻¹ | 2.82 | 1.81e+10 M⁻¹ | 0.06 nM | 1.35e-05 s⁻¹ | 245000 M⁻¹ s⁻¹ | 5.13 | 9.69e+06 M⁻¹ | 0.0046 s⁻¹ | 44500 M⁻¹ s⁻¹ | 3.54e+09 M⁻¹ | 0.28 nM | 0.000123 s⁻¹ | 435000 M⁻¹ s⁻¹ |  |  | B6 |
|  |  |  |  | 7.49e+08 M⁻¹ |  | 0.000838 s⁻¹ | 628000 M⁻¹ s⁻¹ | 6.48 | 1.97e+06 M⁻¹ | 0.0539 s⁻¹ | 106000 M⁻¹ s⁻¹ | 1.16e+08 M⁻¹ |  | 0.0155 s⁻¹ | 1.79e+06 M⁻¹ s⁻¹ |  |  | B7 |
| 3.95e+06 M⁻¹ | 0.0257 s⁻¹ | 101000 M⁻¹ s⁻¹ | 3.42 | 2.2e+10 M⁻¹ | 0.05 nM | 1.18e-05 s⁻¹ | 261000 M⁻¹ s⁻¹ | 5.22 | 1.35e+07 M⁻¹ | 0.00426 s⁻¹ | 57600 M⁻¹ s⁻¹ | 4.23e+09 M⁻¹ | 0.24 nM | 0.000104 s⁻¹ | 440000 M⁻¹ s⁻¹ |  | 74 nM | B8 |
